Literature values as cited in patent US6964771B1, “Method for stably incorporating substances within dry, foamed glass matrices” (Elan Drug Delivery Limited, priority 1995, dated 2005).

Settings: as delivered, dosage of 300 μg

B1: Neupogen®: biopharmaceutical delivered at a dosage of 300 μg (protein, chains of the INN, looked up)
chain: MTPLGPASSLPQSFLLKCLEQVRKIQGDGAALQEKLCATYKLCHPEELVLLGHSLGIPWAPLSSCPSQALQLAGCLSQLHSGLFLYQGLLQALEGISPELGPTLDTLQLDVADFATTIWQQMEELGMAPALQPTQGAMPAFASAFQRRAGGVLVASHLQSFLEVSYRVLRHLAQP
specific activity: 1±0.6×10^8 U/mg
